Laboratory results from patent US20080254507A1.

Biological target: envelope glycoprotein derived from T-tropic HIV-1 (gp120, gp41) (HIV-1 (T-tropic))
Experiment: cell-based or functional assay

Substance: His-tagged actinohivin dimer fusion protein (from UniProt Q9KWN0 47-160)
- concentration that inhibit 50% of syncytium formation (IC50): 0.235

Substance: His-tagged actinohivin monomer fusion protein (from UniProt Q9KWN0 47-160)
- concentration that inhibit 50% of syncytium formation (IC50): 0.58
